Measured values reported in article PMC6588440 (Free radical biology & medicine, 2019).

B1: Peroxiredoxin 2 (Prx2) (natural protein, UniProt P32119 1-198, looked up)
chain: MASGNARIGKPAPDFKATAVVDGAFKEVKLSDYKGKYVVLFFYPLDFTFVCPTEIIAFSNRAEDFRKLGCEVLGVSVDSQFTHLAWINTPRKEGGLGPLNIPLLADVTRRLSEDYGVLKTDEGIAYRGLFIIDGKGVLRQITVNDLPVGRSVDEALRLVQAFQYTDEHGEVCPAGWKPGSDTIKPNVDDSKEYFSKHN
modifications: inter-subunit disulfide (oxidized dimer); reduced thiols alkylated with NEM before lysis
B2: Peroxiredoxin 1 (Prx1) (natural protein, UniProt Q06830 1-199, looked up)
chain: MSSGNAKIGHPAPNFKATAVMPDGQFKDISLSDYKGKYVVFFFYPLDFTFVCPTEIIAFSDRAEEFKKLNCQVIGASVDSHFCHLAWVNTPKKQGGLGPMNIPLVSDPKRTIAQDYGVLKADEGISFRGLFIIDDKGILRQITVNDLPVGRSVDETLRLVQAFQFTDKHGEVCPAGWKPGSDTIKPDVQKSKEYFSKQK
modifications: inter-subunit disulfide (oxidized dimer); reduced thiols alkylated with NEM before lysis
B3: Peroxiredoxin 3 (Prx3) (natural protein, UniProt P30048 62-256, looked up)
chain: APAVTQHAPYFKGTAVVNGEFKDLSLDDFKGKYLVLFFYPLDFTFVCPTEIVAFSDKANEFHDVNCEVVAVSVDSHFSHLAWINTPRKNGGLGHMNIALLSDLTKQISRDYGVLLEGSGLALRGLFIIDPNGVIKHLSVNDLPVGRSVEETLRLVKAFQYVETHGEVCPANWTPDSPTIKPSPAASKEYFQKVNQ
modifications: inter-subunit disulfide (oxidized dimer); reduced thiols alkylated with NEM before lysis

Molecular target: the molecule itself
Test: non-reducing SDS-PAGE immunoblot

Stoichiometry N, 2:
B1
B2
B3
